Here are results for two substances from patent US20170342169A1.

The target in experiment [1] is human mesothelin on cells (SN12C, OVCAR3, SW1990 endogenous; HEK293 transfectants) (human) (UniProt Q13421). The experiment is described as follows: FACS, SN12C cells (CA125-).
Experiment [2] shares this target. As to the kind of experiment: FACS, OVCAR3 cells (CA125+). For orientation: In flow cytometry, cells or beads pass a laser one at a time.
The next experiment concerns the target mouse 4-1BB (mouse) (UniProt P20334). As to the kind of experiment: SPR. A general note: In SPR one partner is held on a chip, and binding of the other changes the refractive index at the surface.

mouse 4-1BB (mouse), sequence (P20334 24-187): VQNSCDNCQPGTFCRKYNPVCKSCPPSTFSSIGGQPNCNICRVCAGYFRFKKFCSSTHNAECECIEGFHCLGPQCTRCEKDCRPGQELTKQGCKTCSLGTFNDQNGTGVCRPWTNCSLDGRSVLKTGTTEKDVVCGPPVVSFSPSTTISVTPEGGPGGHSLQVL
human mesothelin on cells (SN12C, OVCAR3, SW1990 endogenous; HEK293 transfectants) (human), sequence (Q13421 other isoform, or with tags, fused parts or gaps limits assumed): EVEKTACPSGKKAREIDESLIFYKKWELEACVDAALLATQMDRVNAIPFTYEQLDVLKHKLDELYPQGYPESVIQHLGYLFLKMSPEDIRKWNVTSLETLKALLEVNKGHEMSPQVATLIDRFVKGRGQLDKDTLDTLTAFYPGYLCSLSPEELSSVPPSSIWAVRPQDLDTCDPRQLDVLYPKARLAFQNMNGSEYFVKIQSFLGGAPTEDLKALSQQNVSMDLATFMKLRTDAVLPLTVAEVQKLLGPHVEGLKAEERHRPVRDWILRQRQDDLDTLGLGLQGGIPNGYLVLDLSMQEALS

For the substance HuIgG1 control (antibody), the results for the Maximum binding (MFI) in experiment [1] and in experiment [2] were 40 MFI and 70 MFI, respectively.

In the case of 1D8 (antibody), in the experiment with mouse 4-1BB (mouse), the Kd (usually a measure of binding affinity in units of concentration) is 3.9 nM, the koff (commonly the first-order rate constant of dissociation) is 0.008 s⁻¹ and the kon (usually a measure of how fast the partners come together) was 2.1e+06 M⁻¹ s⁻¹.
